Assay results reported in the DeepSol protein solubility set.

assay: soluble on expression in E. coli; label from the status in PepcDB or PDB records

Sequence	soluble on expression in E. coli
VFADKLDITVDQKKIILPYWLSRPVSYGAVIIVSGGETAQWSLLLEQFAKGLARNGWSVVLLNCTKNNSIPWINQLPEVISTLRQNNNKRIVLVHYGDQLNLALEYFSKPQSKMINGLVMLSAYDLNRNLQKVPRLRFPLFDIVGQFDYDMVRQQRKSREEKFKENSYLAIDIPGATHDYQYSQQLLLAFVHGWM	not soluble
VGGQVRIAANTSSITQFLPEDLAGFMQRHPAVRIHLEEQNSSDIVTAVAENRADVGIFADRTPAAGLTTVPYRLDELVLITPPRHPLAARAQVAFADTLDCDYVGLPPATSLATRLADESARLDKSIRLRIQVRSFDAICRMVVAT	not soluble
VGKVFVDAIVKFTKEGDKIPLEIVWDDGRRFEVDRVLDVTKAASLKAGGRGTRYKCRIRGKEIYLFFDDEKWFVETGNK	not soluble
VGSFYGQYLSIRKTEALLRNELNALTPATVMELADKLPEKSSSLVISYIRQVLQAHESPAQIQRLLANFEIAADKDLAISKTLTKLGP	not soluble
VIESMSDGYIVVDTSNSIVDVNRAVLELAGKTRKEVLGKNLTYLFGEGVELLCHTPEGDFGREISLKSGSEIKFFTVSVSPLMARNEPEGKLIMIHDIT	not soluble
VLRHISPAFAEDPLRVLRAARFMARLAPLGFSIAPETLAMMRQMAANGELNSLIPERIWKELSRSLTYTQPAAFLHTLRTVNALEVVLPELNALYGVPQHADYHPEIDTGLHQELVSDIAAKLAPGDMLIGFAALCHDLGKALTPRATWPHHPMHEQRGMAPTQQLSERLKVPRNYQQLALIACREHLNVHRLSKLHDNTVYELLQRCDAFRRPERIAQLAIVCEADYRGRYGHEDANYPQG	not soluble
VLTDIQIAQSCKMKPITQVAAELGIDEEELELYGKYKAKLSDKLWERVKDRPDGKLVLVTAINPTPAGEGKTTTTVGLGQAMARIGKKAVIALREPSLGPVMGIKGGAAGGGYSQVVPMEDINLHFTGDMHAITAANNLLSAAIDNHIQQGNELNIDVRQIIWKRAMDMNDRALRNIVVGLGGKANGVPREDGFQITVASEVMAVLCLSTGLMDLKERLGRILIGYTYDGKPVFAKDLKVNGAMALLLKDAIKPNLVQTLENTPAIVHGGPFANIAHGCNSIVATRLGLKLADYCITEAGFGADLGAEKFFNIKCRYAGLKPDLVVLVATIRALKYNGGVKKENLGIENLPALEKGFVNLEKHIENIRKFQVPLLVAINHFDTDSEAEIEYVKNRCKALNVEVAFSDVFSKGSEGGIELAEKVVKLTETQKSNFKPLYDVNLSIREKIEIIAREIYGADSVNILPAAERAIKKIEELKMDKLPICVAKTQYSLSDDPTLLGRPQGFVITVREIKLSSGAGFIVAITGDIMTMPGLPKVPAAEKIDIDENGVITGLF	soluble
VMGKRYVATPQQSQWEMVVNTPLECQLVHPIPSFGDAVFSSRANKKINLDFELKMRRPMGETRNVSLISMPPPWRPGEHADRITNLKFFKQFDGYVGGQTAWGILSELEKGRYPTFSYQDWQSRDQRIEVALSSVLFQNKYNAFSDCISNLLKYSFEDIAFTILHYERQGDQLTKASKKRLSQIADYIRHNQDIDLVLVATYTDSTDGKSASQSLSERRAESLRDYFQSLGLPEDRIQVQGYGKRRPIADNGSPIGKDKNRRVVISLGRTQVHHHHHH	soluble
VPGILMCEIFIRANQRSYSVQARSLRLHGVATSVRLEQLFWDVLEEIAARDGMRVTQLIERLYDELVQYRGEAANFTSFLRVCCLRYQVLQAEGRIPADATVPIRSLDAQAVLRGLPANLYDSR	not soluble
VPLEHFNVPYEDSFFPAVRVKFQGSTKTLIFHGGYDSCLEEMLPFFSAFENLGYDIIAFEGPGQGMALKNGLKFIHNWERPVSALLDYFNLNEVTILGCSWGGYFCLRAAAFEKRIKAAIVYDIFYCGMDVIGMKNKEMRYELEKLLNNNEKDKINELMYSKMKADIDFNWKISKGMDNTMTYTPYDFLKAIQLHTMDGIEELIDQDVLLLAGEEDQYVPIEAMKLFEDRLVNANITKKIFTKETGGEQHCQVGRIDLAFDEIKKFLVR	not soluble
VPRIAEVRDAAEPSSEEQRARHVRMLEAAIELATEKELARVQMHEVAKRAGVAIGTLYRYFPSKTHLFVAVMVDQIDRMGVGFKKSAPPGESPQDAVYNVLVRATRGLLRRPALSTAMIQSTSTANVASVPDAGKVDRAFRQIMLDAAGIEHPTEEDLTALRLLVQLWFGVIQSCLNGRVSIPDAESDIRRACDLLLVNLSHR	soluble
VQSMSDESEKNSASPDAMRVGTRVLVRRQPEAATGVIVEDYAELTDTAGRGHDWAPVHRWAVALDDGRLVFADTEDLTVDIGTVDSE	not soluble
VRNSPDLLDEIRAGITVHARPDLQTPIDGLLLSKVTAESAAPEYSLTEPLLVIMTQGGKRLLLGDRLYEYRAGQCLVVTASVPVTGHYIDISEGAPSLAMGLVLRPAAIAALVLQAPTERWSRGAAGVPAIETGDADVHLLDAAARMLRLLDHPADAPVLAPLIEQEILWRLLTGPHGSTIRQIGMADSDLAHVSRAIHWIRDNYSEPMRIDDLARLSSMSASAFHRHFRAVTAMSPLQYQKRIRLQHARSMLVAHPGDVAGVGHHVGYDSPSQFNREYRRLFGASPGKDAHGLRGNTALSDTGPLP	not soluble
VRQKGIDIIFMLDISNSMLARDTAPDRLTHAKTELLQISRRLGDGRKALLLFAGTPVVQCPLTDDEEDFEILLDMAAPELITTQGTDYRRAFDAALKLTNSGGELSSNETVLVLASDGEDHGNDLGDIATAMKTRGVHLHVIGVGGVQPVPIPMQGGPKRDQQGKIVLTSFKPEPLASLIKTAKGKFYYSRPDAPVHDAVADDIAAEAAEA	not soluble
VSSGAGSDATGAGGVHAAGSGDRAVAAAVERAKATAARNIPAFDDLPVPADTANLREGADLNNALLALLPLVGVWRGEGEGRGPDGDYRFGQQIVVSHDGGDYLNWESRSWRLTATGDYQEPGLREAGFWRFVADPYDPSESQAIELLLAHSAGYVELFYGRPRTQSSWELVTDALARSRSGVLVGGAKRLYGIVEGGDLAYVEERVDADGGLVPHLSARLSRFVG	soluble
VTDDLEPTAPAAAAPEPEVKGIDLARRALEEARAAAKASGKSVGQGRRSGTGVRALRARRRRGWSGPGPDDRDPQPFGALTNAIAKQRGWSPKVSEGTVLGRWVQVVGEDIAAHAEPTGLRDGILSVSAESTAWATQLRMMQSQILAKIAAAVGDGVVKSLRITGPTAPSWRKGERHIRGRGPRDTYG	not soluble
VTTSSDPSSPVPQEDLDAVAAQLGREPRGVLEIAYRSPDGTPGVVKTAPKLPDGTPFPTLYYLTDPRLTAEASRQESAGVMREMTERLGQDPELAAAYLRAHESYLAERDAIEPLGTDFTGGGMPERVKCLHVLMAHSLAKGPGVNPLGDESVALAASAAGGKLRGTAIPADWPGIDDVESPEQ	not soluble
VVQGTVKPHASFNSREDAETLRKAMKGIGTDEKSITHILATRSNAQRQQIKTDYTTLFGKHLEDELKSELSGNYEAAALALLRKPDEFLAEQLHAAMKGLGTDKNALIDILCTQSNAQIHAIKAAFKLLYKEDLEKEIISETSGNFQRLLVSMLQGGRKEDEPVNAAHAAEDAAAIYQAGEGQIGTDESRFNAVLATRSYPQLHQIFHEYSKISNKTILQAIENEFSGDIKNGLLAIVKSVENRFAYFAERLHHAMKGLGTSDKTLIRILVSRSEIDLANIKETFQAMYGKSLYEFIADDCSGDYKDLLLQITGH	soluble
WGYQTDGRFQNFDEINTYPIQNGDNGNSKELPGDYILKDVNGDGVVNDLDKTPLFWSGSPLIHYGFNVEASWKNFDFYALFQGSALYTVQFDEVYAKMLCFKGGNTPEYFYDRWHLSDPYDANSEWIPGEWPAIRLEQDMGSFYTRDSQIWRKNASYLRLKTIEIGYTFSPRLMHKLGIGSLRIYANGNNLFTVCDPFVKAFDPEKIEGDYSAGLNYPLNKSFNFGLTLNF	not soluble
WIRTGDGVRLRTVVWPEGAAGTVLIFSGRTEYAEKYGPAAEALRRRGFASATLDWRGQGLSDRSLRDPLVGHVDDFASYQQDVTAFVAALRAQGLPEPFHLLAHSMGGCIGLRALHEGLPVRAACFSAPMWGIRVHAALRIVAAALGALARATGLGHRYVPGTGTRSYVATAAFDTNVLTRDPEMFAWMQEQLVQAPELGLAGPSLDWLRAAFEETARLKRLPAPDLPALCIVGSAEKVVDLEEIQRRMEGWGRGELQIVPGAEHEVMMDRPEVRDAFFDAA	not soluble
WLLAELTYRCPLQCPYCSNPLDFARQDKELTTEQWIEVFRQARAMGSVQLGFSGGEPLTRKDLPELIRAARDLGFYTNLITSGIGLTESKLDAFSEAGLDHIQISFQASDEVLNAALAGNKKAFQQKLTMAKAVKARDYPMVLNFVLHRHNIDQLDKIIELCIELEADDVELATCQFYGWAFLNREGLLPTREQIARAEQVVADYRQKMAASGNLTNLLFVTPDYYEERPKGCMGGWGSIFLSVTPEGTALPCH	not soluble
YASRDMDIKRLGKAVMAAAGSPGHFPDVAIPGGVRALPDPQALAELRLPENYEESFEPVPYDGFDMMLTSHGTLDPLGDHVTARSGEERITFDLQTWADHVAESRPGDPAPRPLVHGHPYRVGPYAHGEAMVPRSLAEIRRIIADPRLCEGEFRKESSILSGIGVGAVEGPRGLLVHRYVANEDGVLVDCQILTPTAQNEAWLASMLEASLQQDSDRGVELSVENSIRTANPCLPCSSAPEGHMGVVIEKGN	not soluble
YDKEFGGFGGAPKFPMAMNLSFLLRYGQRYGDGEAVAMATDTLTAMAQGGIWDHLGGGFHRYTVDGRWLVPHFEKMLYDQALCTLALVEAAQVTGNSVFRELAKETCGFVLRELSAPAGGFYSALDADSEGREGACYLWTPAQVRDILGVADGELFCRLYAVTAWGNFEGANVLHLPLAPDAFARDEGVDPLRLQEKIAQWHILLLEARERRPRPFRDEKIITGWNGLMIAALARTFLICGDELLLEGAERAVRRVCIDLRTPAGRLVRSCHRGEASGPGFLEDYAFFIRGLLELHEATLDPRHLALARSLAHDMLRLFGDSGGGLFDTGSDAETILVRGKG	not soluble
YIKYFNDKTIDEELERDKRVTWIVEFFANWSNDCQSFAPIYADLSLKYNCTGLNFGKVDVGRYTDVSTRYKVSTSPLTKQLPTLILFQGGKEAMRRPQIDKKGRAVSWTFSEENVIREFNLNEL	soluble
YTSLIRRVEHAVDSDGSFETGNEVKLSGVGVIGTDERFERVGETYASYYGYESEELVGKHWSELHPSNEVQHIRTHVIPAVRSGGKWTGQSKGLRADETTFTESKMVTALEDGRMLIAVDEIDDSGLAE	not soluble
